# From the nanobody polyreactivity screen of Harvey et al. (2022)
# Assay: yeast display, Sf9 membrane polyspecificity reagent, FACS + sequencing; frameworks hold sequencing errors
# Procedure, shortened: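 Galactose-induced (36–48 hours) yeast carrying a synthetic nanobody display library were exposed to 10% biotinylated, detergent-solubilized Sf9 membrane reagent at 4 °C for 1 hour. FACS followed streptavidin microbead enrichment, using low and high (top ~1%) gates for expression (anti-HA) and reagent binding (streptavidin). Colony PCR, MiSeq 2 × 250 sequencing and CDR-length filtering followed. Labels for polyreactivity reflect the gate of origin.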
row,Sequence,polyreactivity (PSR sort gate)
1,QVQLVESGGGLVQAGGSLRLSCAASGLIFIAYAMGWYRQAPGKEREFVAAITWNGVSTYYADSVKGRFTISRDNAKNTVYLQMNSLKPEDTAVYYCNADYVFSPWAYEYWGQGTQVTVSS,high polyreactivity
2,QVQLVESGGGLVQAGGSLRLSCAASGLIFILYAMGWYRQAPGKERELVAAISWTGGSTYYADSVKGRFTISRDNAKNTVYLQMNSLKPEDTAVYYCNKVGVRSGARSIYVVRRYEYWGQGTQVTVSS,high polyreactivity
3,QVQLVESGGGLVQAGGSLRLSCAASGLIFIQYAMGWYRQAPGKEREFVAAISWSGTSTHYADSVKGRFTISRDNAKNTVYFQMNSLKPEDTAVYYCAAAKTGRGRGTTGYGYWGQGTLVTVSS,high polyreactivity
4,QVQLVESGGGLVQAGGSLRLSCAASGLIFITYAMGWYRQAPGKERELVATITLRGGSTYYADSVKGRFTISRDNAKNTVYLQMNSLKPEDTAVYYCAARYFSYYILRRIYPVREDYWGQGTQVTVSS,low polyreactivity
5,QVQLVESGGGLVQAGGSLRLSCAASGLIFKSYAMGWSRQAPGKERELVAVISSSGGSTYYADSVKGRFTISRDNAKNTVYLQMNSLKPEDTAVYYCAARSTYRTGDYWGQGTQVTVSS,high polyreactivity
6,QVQLVESGGGLVQAGGSLRLSCAASGLIFKVYALGWYRQAPGQERELVAAITYSGGSTDYADSVKGRFTISRDNAKNTVYLQMNSLKPEDTAVYYCNVETVGHVNSYGYDYWGQGTQVTVSS,low polyreactivity
7,QVQLVESGGGLVQAGGSLRLSCAASGLIFKWYGMGWYRQAPGKERELVAAITENGGSTYYADSVKGRFTISRDNAKNTVYLQMNSLKPEDTAVYYCAAETWADWYSEFYWGQGTQVTVSS,high polyreactivity
8,QVQLVESGGGLVQAGGSLRLSCAASGLIFKYNAMGWYRHAPGKERELVAAISTSGGSTYYADSVKGRFTISRDNAKNTVYLQMNSLKPEDNAVYFCNAVAGRPFRYYYWGQGTQVTVSS,high polyreactivity
9,QVQLVESGGGLVQAGGSLRLSCAASGLIFKYNAMGWYRQAPGKERELVAAITWSGGITYADSVKGRFTISRDNAKNTVYLQMNSLKPEDTAVYYCAARGYWQPRPRRRYDYWGQGTQVTVSS,high polyreactivity
10,QVQLVESGGGLVQAGGSLRLSCAASGLIFKYNGRGWNRQAPGNVRELGAAITKRGGSTYYADSVKGRFTISRDKAKNTVYLQMNSLKPEDTAVYYCAAGRAGRKDYYWGQGTQVTVSS,high polyreactivity
11,QVQLVESGGGLVQAGGSLRLSCAASGLIFLDYAMGWYRQAPGKERELVAAISRSGGRTYYADSVKGRFTISGDNAKNTVYLQMNSLKPEDTAVYYCAADGSRKSEIYDYWGQGTQVTVSS,high polyreactivity
12,QVQLVESGGGLVQAGGSLRLSCAASGLIFLEYAMGWYRQAPGKEREMVAAISTSGGSTYYADSVKGRFTISRDNAKNTVYLQLNSLTPEDTAVYYCAADPVYNYYFDDGDYWGQGTQVTVSS,low polyreactivity
13,QVQLVESGGGLVQAGGSLRLSCAASGLIFLGNAMGWYRQAPGKERELVAAISRSGGTTYYADSVKGRFTISRDNAKNTVYLQMNSLKPEDTAVYYCNAYNPYYRATVSSRGYGYWGQGTQVTVSS,high polyreactivity
14,QVQLVESGGGLVQAGGSLRLSCAASGLIFLRYAMGWYRQAPGTERELVAVISSGGRTYYADSVKGRFTISRDNAKNTVYLQMNSLKPEDTAVYYCAARTRSYWGTYGSYHYDYWGQGTQVTVSS,high polyreactivity
15,QVQLVESGGGLVQAGGSLRLSCAASGLIFLSHTMGWYRQAPGKERELVATIDGGAGSTYYADSVKGRFTFSRDNAKNTVYLQMNSLKPEDTAVYYCAATTIPGWFGSFPVSAGDYWGQGTQVTVSS,low polyreactivity
16,QVQLVESGGGLVQAGGSLRLSCAASGLIFLWYAMGWYRQAPGKERELVAAIRSSGDSTYYADSVKGRFTISRDNAKNTVYLQMNSLKPEDTAVYYCNRRKTNSRYDYCGQGTQVTVSS,low polyreactivity
17,QVQLVESGGGLVQAGGSLRLSCAASGLIFNIYAMGWYRQAPGKARELVATIRYSGGSTNYADSVKGRFTISRDNAKNTVYLQMNSLKPEVTAVYYCNAGYYPTGYDYWGQGTQVTVSW,low polyreactivity
18,QVQLVESGGGLVQAGGSLRLSCAASGLIFNIYAMGWYRQAPGKERELVAAISKSGGSTYYADSVKGRFTISRDNAKNTVYLQMNSLKPEDTAVYYCAVRSMRVDKYGYWGQGTQVTVSS,high polyreactivity
19,QVQLVESGGGLVQAGGSLRLSCAASGLIFNNYAMGWYRQAPGKERELVATISRTGTSTYYADSVKGRFTISRDNAKNTVYLQMNSLKPEDTAVYYCNAVIQLFEWGWDDEYDYWGQGTQVTVSS,low polyreactivity
20,QVQLVESGGGLVQAGGSLRLSCAASGLIFNRNDMGRYRQAPGKETELVAAISGDGGITYYADSVKGRFTISRDNAKNTVYLQMNSLKPEDTAVYYCNAGFTWGDWYDYWGQGTQVTVSS,low polyreactivity

row,Sequence,polyreactivity (PSR sort gate)
1,QVQLVESGGGLVQAGGSLRLSCAASGLIFNYYAMGWYRQAPGKERELVAAISYNGGTTYYADSVKGRFTISRDNAKNTVYLQMNSLKPEDTAVYYCAAEQLVSGYDYWGQGTQVTVSS,low polyreactivity
2,QVQLVESGGGLVQAGGSLRLSCAASGLIFPFYTMGWYRQAPGKERELVASISSGASTYYADSVKGRFTISRDNAKNTVYLQMNSLKPEDTAVYYCNADTFAWEGQRKWFAYDYWGQGTQVTVSS,low polyreactivity
3,QVQLVESGGGLVQAGGSLRLSCAASGLIFPSYAMGWYRQAPGKEMELVAAITFSGSDTNYADSVKGRFTISRDNAKNTVYLQMNSLKPEDTAVAYCAAAYFDFWGWLHDYWGQGTQVTVSS,low polyreactivity
4,QVQLVESGGGLVQAGGSLRLSCAASGLIFPTNAMGWYRPAPGKERELVAAISSVGSTYYADSVKGRFTISRDNAKNTVYLQMNSLKPEDTAVYYCAAYWYGSQYKWRYDYWGQGTQVTVSS,low polyreactivity
5,QVQLVESGGGLVQAGGSLRLSCAASGLIFPWTYAMGWYRQAPGKEREFVAAITSSDGSTYYADSVKGRFTISRDNAKNTVYLQMNSLKPEDTAVYYCAAVGWDYDWDYYYWGQGTQVTVSS,high polyreactivity
6,QVQLVESGGGLVQAGGSLRLSCAASGLIFPYYAMGWNRQAPGKESELVAASSGSGGRTYYADSVKGRFTISRDNAKITVYLQMNSRKPEDTAVYYCAAAVLDSYTRYIWYIYDYWGQGTQVTVSS,high polyreactivity
7,QVQLVESGGGLVQAGGSLRLSCAASGLIFPYYAMGWYRPAPGKERELVAAISRSGDSTYYADSVKGRFTISRDNAKNTVYLQMYSLKPEDTAVYYCAAVLSYSYVRYNYWGQGTQVNVSS,high polyreactivity
8,QVQLVESGGGLVQAGGSLRLSCAASGLIFPYYAMGWYRQAHGKERELVAAITRRGGSTYYADSVKGRFTISRDNAKNTVYLQMNSLKPEDTAVYYCNKVDQGRYGYWGQGTQVTVSS,high polyreactivity
9,QVQLVESGGGLVQAGGSLRLSCAASGLIFQRNTMGWYRQAPGKERELVAAISRSGGSTYYADSVKGRFTISRDNAKNTVYLQMNSLKPEDTAVYYCAALIFRHRGKDDDYWGQGTQVTVSS,high polyreactivity
10,QVQLVESGGGLVQAGGSLRLSCAASGLIFQYYVMGWYRQAPGKERELVAAISARGGGTYYADSVKGRFTISRDNEKITVYLQMNSLKPEDTAVYYCAADFGTIRVYSGDYWGQGTQVTVSS,high polyreactivity
11,QVQLVESGGGLVQAGGSLRLSCAASGLIFRAYAMGWYRQAPGKERELVAAISRNGGSTYYADSVKGRFTISRDNAKTTVYLQMNSLKPEDTAVYYCNKVSRSSVYLDYYYWGQGTQVTVSS,high polyreactivity
12,QVQLVESGGGLVQAGGSLRLSCAASGLIFRAYAMGWYRQAPGKERELVAAITRSGGSTYYADSVKGRFTISRDNAKNTVDLQMNSLKPEDTAVYYCATAQWVGYWDDYWGQGTQVTVSS,high polyreactivity
13,QVQLVESGGGLVQAGGSLRLSCAASGLIFRGYVMGWYRQAPGKERELVAAISRRGVNTYYADSVKGRFTISRDNAKNTFYLQMNSLKPEDTAVYYCNAYVHTQGGDYWGQGTQVTVSS,high polyreactivity
14,QVQLVESGGGLVQAGGSLRLSCAASGLIFRHYAMGWYRQAPGKERELVAVISSGAGTYYADSVKGRFTISRDNAKNTVYLQMISMKPEDTAVYYSARDLYYRYRYFITGLYDSWGQGTQVTVSS,low polyreactivity
15,QVQLVESGGGLVQAGGSLRLSCAASGLIFRIYAMGWYRQAPGKERELVAAISSTGSRTYYADSVKGRFTISRDNAKNTVYLQMNSLKPEDTAVYYCAAKAYINNYDYWGQGTQVTVSS,high polyreactivity
16,QVQLVESGGGLVQAGGSLRLSCAASGLIFRKYAMGWYRQAPGKERELVAAISRSGGSTYYADSVKGRFTISRDNAKTTVYLQMNSLKPEDTAVYYGAAQQHYGDGYWGQGTQVTVSS,high polyreactivity
17,QVQLVESGGGLVQAGGSLRLSCAASGLIFRLYAMGWYIQAPGKERELVAAISGGGGSTYYADSVKGRFTISRDNAKNTVYLQMNSLKPEDTAVYYCAATYSRGYWWSEYDYWGQGTQVTVSS,low polyreactivity
18,QVQLVESGGGLVQAGGSLRLSCAASGLIFRNYAMGWYRQAPGKERELVAAISSGGDNTYYADSVKGRFTISRDNAKNTVYLQMNSLKPEDTAVYYCAAGRYVGPSYYAYGYWGQGTQVTVSS,high polyreactivity
19,QVQLVESGGGLVQAGGSLRLSCAASGLIFRRYALGWYRQAPGKERELVAVISSGGRTYYADSVKGRFTISRDNAKNTVYLQMNSLKPEDTAVYYCAARTRSYWGTYGSYHYDYWGQGTQVTVSS,high polyreactivity
20,QVQLVESGGGLVQAGGSLRLSCAASGLIFRSYAMGWYRQEPGKERELVARISIRGGSTYYADSVKGRFTISRDNAKNTVYLQMNSLKPEDTAVYYCAADYASWSNWGYEYWGQGTQVTVSS,high polyreactivity
